Positions of bridges follow the written chain, without caps; N, C: chain ends. No end group written: not given here. *: point of attachment. 125I = [125I]*

Assay [1] concerns the target human GRF receptor (human) (UniProt Q02643). As to the kind of experiment: cell-based or functional assay.
A further assay has as its target rat CCKB receptor (rat) (UniProt P30553). As to the kind of experiment: cell-based or functional assay.
The target in assay [2] is yeast Gβγ (Saccharomyces cerevisiae) (UniProt P18851). As to the kind of experiment: cell-based or functional assay.
For assay [3], the target named is T1, rat SSTR2 somatostatin receptor subtype (rat, UniProt P30680 1-369).
T1 construct: whole, on cells; Tested in yeast cells or crude yeast membranes; also called somatostatin receptor subtype 2
Kind of assay: radioligand saturation binding, yeast membranes coexpressing Scg1/Gαi2.

T1 sequence (P30680 whole entry): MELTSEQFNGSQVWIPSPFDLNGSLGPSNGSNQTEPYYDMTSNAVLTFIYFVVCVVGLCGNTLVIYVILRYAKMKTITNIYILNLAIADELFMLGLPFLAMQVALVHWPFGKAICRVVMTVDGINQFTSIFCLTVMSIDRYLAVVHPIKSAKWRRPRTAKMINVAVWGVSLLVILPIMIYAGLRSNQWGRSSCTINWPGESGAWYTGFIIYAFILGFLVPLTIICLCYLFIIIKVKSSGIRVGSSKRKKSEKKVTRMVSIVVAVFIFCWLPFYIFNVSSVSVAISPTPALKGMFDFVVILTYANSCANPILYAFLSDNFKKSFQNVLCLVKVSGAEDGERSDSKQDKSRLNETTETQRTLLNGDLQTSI
Chain of human GRF receptor (human) (Q02643 23-423): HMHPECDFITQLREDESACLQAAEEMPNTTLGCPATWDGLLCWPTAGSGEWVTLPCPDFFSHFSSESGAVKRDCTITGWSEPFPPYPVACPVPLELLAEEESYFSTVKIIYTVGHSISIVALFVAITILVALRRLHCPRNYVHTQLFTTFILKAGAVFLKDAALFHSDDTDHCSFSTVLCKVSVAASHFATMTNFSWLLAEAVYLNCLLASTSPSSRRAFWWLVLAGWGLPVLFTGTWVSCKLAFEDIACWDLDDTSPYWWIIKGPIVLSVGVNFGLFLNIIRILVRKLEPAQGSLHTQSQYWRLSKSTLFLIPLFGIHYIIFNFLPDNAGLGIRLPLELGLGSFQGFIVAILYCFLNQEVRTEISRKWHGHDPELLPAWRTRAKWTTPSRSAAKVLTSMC
Chain of yeast Gβγ (Saccharomyces cerevisiae) (P18851 whole entry, chain 1 of 2): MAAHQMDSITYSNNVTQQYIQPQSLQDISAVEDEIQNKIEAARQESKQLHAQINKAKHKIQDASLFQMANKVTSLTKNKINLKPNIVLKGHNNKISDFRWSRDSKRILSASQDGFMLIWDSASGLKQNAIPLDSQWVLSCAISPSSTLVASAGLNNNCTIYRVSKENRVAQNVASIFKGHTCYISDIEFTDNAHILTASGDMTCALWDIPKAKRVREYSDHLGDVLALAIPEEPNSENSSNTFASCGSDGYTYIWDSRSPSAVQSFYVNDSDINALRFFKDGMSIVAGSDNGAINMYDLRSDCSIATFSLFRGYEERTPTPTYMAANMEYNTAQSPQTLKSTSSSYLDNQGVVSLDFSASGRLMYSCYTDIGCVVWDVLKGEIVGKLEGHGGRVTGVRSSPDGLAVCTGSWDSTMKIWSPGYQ
Chain of yeast Gβγ (Saccharomyces cerevisiae) (P18852 1-107, chain 2 of 2, further chain): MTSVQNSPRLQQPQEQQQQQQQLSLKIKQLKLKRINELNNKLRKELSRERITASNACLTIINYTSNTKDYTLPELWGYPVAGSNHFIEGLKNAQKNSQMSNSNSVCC
Chain of rat CCKB receptor (rat) (P30553 whole entry): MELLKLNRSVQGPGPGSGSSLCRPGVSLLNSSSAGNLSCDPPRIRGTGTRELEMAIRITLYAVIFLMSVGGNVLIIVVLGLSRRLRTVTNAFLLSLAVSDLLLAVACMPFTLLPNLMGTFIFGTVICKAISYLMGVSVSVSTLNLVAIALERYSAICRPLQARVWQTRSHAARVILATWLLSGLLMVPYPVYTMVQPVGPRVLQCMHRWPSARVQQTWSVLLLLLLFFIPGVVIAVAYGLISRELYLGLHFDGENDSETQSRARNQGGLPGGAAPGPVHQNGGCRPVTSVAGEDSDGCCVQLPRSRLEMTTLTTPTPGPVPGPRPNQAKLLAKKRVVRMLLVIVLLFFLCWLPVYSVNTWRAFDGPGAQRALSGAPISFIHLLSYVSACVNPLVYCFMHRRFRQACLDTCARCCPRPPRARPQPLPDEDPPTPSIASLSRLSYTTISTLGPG

Turning to “hGRF (1-29)-NH2 (from UniProt P01286 32-60) (peptide)”, in assay [1], the growth response, agar plate bioassay, strain CY990 was found to be 20 nmol. “CCK-4 (from UniProt P06307 100-103) (peptide)” gave a growth response, agar plate bioassay, strains LY628 and LY631 with rat CCKB receptor (rat) of 10 µg. In assay [2], rat Gαi2 (from UniProt P04897 2-355) registered a reduction of pheromone-induced FUS1-lacZ signaling, CEN plasmid of 16%. For AGCKNFFWKTY(125I)TSC (disulfide 3-14 (inferred); ends not checked) [[^125I-tyr^11]-somatostatin 14], the Kd (usually the concentration at which binding is half-saturated) in assay [3] is 0.6 nM.

(Values after patent US7148053 (BASF AKTIENGESELLSCHAFT, dated 2006).)
